Earlier results on 11 molecules are cited in US20240247069A1, “FGFR3 BINDING MOLECULES AND METHODS OF USE THEREOF” (Regeneron Pharmaceuticals, Inc., priority 2023, published 2024).

Where two headings read alike, the source gives them in different places.

For this series, the system named is FGFR3.
The mark [1] stands for this setting: literature antibodies, sequences from cited PCT publications.
The mark [2] stands for this setting: Table T-3, exemplary FGFR3 D3 binding sequences from cited PCT publications.

B1: FGA0005: anti-FGFR3 (S249C mutant) antibody of WO 2021/010326 A1; VH SEQ ID NO:86, VL SEQ ID NO:87 (antibody, V domains shown)
VH: QSLEESGGRLVTPGTPLTLTCTASGFSLSTYWICWVRQAPGEGLEWIGYISSSGNTYYASWAKGRFTISKTSSTTVDLKMTSLTTEDTATYFCGGHNSDYITGWALDPWGPGTLVTVSS
VL: AAVLTQTASPMSAAVGGTVTINCQSSKSVYRDKWLSWFQQKPGQPPKLLIYGASNLASGVSSRFKGSGSGTQFTLTISDVQCDDAATYYCLGGYSDNSEDAFGGGTEVVVK
On to B1, for which the Activity result under setting [1] is given as “Antagonistic”.

B2: MS-Pro-2: anti-FGFR3 Ig-like domain 2 antibody of WO 2002/102972 A2; VH SEQ ID NO:24, VL SEQ ID NO:25 (antibody, V domains shown)
VH: QVQLVQSGAEVKKPGASVKVSCKASGYTFTSYYMHWVRQAPGQGLEWMGWINPNSGGTNYAQKFQGRVTMTRDTSISTAYMELSSLRSEDTAVYYCARDFLGYEFDYWGQGTLVTVSS
VL: DIELTQPPSVSVAPGQTARISCSGDALGDKYASWYQQKPGQAPVLVIYDDSDRPSGIPERFSGSNSGNTATLTISGTQAEDEADYYCQSYDYSADYVFGGGTKLTVLGQ
Turning to B2, the Activity entry under setting [1] is “Antagonistic”.

B3: FGA0002: anti-FGFR3 (S249C mutant) antibody of WO 2021/010326 A1; VH SEQ ID NO:84, VL SEQ ID NO:85 (antibody, V domains shown)
VH: QELVESGGGLVQPGGSLKLSCKASGIDFSSYGISWVRQAPGKGLEWIAYIVPGFGIRNYANSVKGRFTISSDNAQNTVFLQMTSLTASDTATYFCARVPQYASSSGYYLPFNLWGPGTLVTVSS
VL: ALVMTQTPSPVSAAVGGTVTINCQASEDIYYNLAWFQQKPGQPPKLLIYRASTLASGVPSRFSGSGSGTEFTLTISDVQCDDAATYYCLGVYTYISADGNAFGGGTEVVVK
With B3, the Activity entry under setting [1] is given as “Antagonistic”.

B4: MS-Pro-11: anti-FGFR3 Ig-like domain 3 antibody of WO 2002/102972 A2; VH SEQ ID NO:30, VL SEQ ID NO:31 (antibody, V domains shown)
VH: QVQLVQSGAEVKKPGASVKVSCKASGYTFTSYYMHWVRQAPGQGLEWMGWINPNSGGTNYAQKFQGRVTMTRDTSISTAYMELSSLRSEDTAVYYCARYYGSSLYHYVFGGFIDYWGQGTLVTVSS
VL: DIALTQPASVSGSPGQSITISCTGTSSDVGGYNYVSYQQHPGKAPKLMIYDVSNRPSGVSNRFSGSKSGNTASLTISGLQAEDEADYYCQSHHFYEVFGGGTKLTVLGQ
As to B4, the Activity result is, setting by setting: under setting [2], “Antagonistic”; under setting [1], “Antagonistic”.

B5: MS-Pro-26: anti-FGFR3 Ig-like domain 3 antibody of WO 2002/102972 A2; VH SEQ ID NO:36, VL SEQ ID NO:37 (antibody, V domains shown)
VH: QVQLVQSGAEVKKPGASVKVSCKASGYTFTSYYMHWVRQAPGQGLEWMGWINPNSGGTNYAQKFQGRVTMTRDTSISTAYMELSSLRSEDTAVYYCARGYWYAYFTYINYGYFDNWGQGTLVTVSS
VL: DIALTQPASVSGSPGQSITISCTGTSSDVGGYNYVSWYQQHPGKAPKLMIYDVSNRPSGVSNRFSGSKSGNTASLTISGLQAEDEADYYCQSYDNNSDWFGGGTKLTVLGQ
In the case of B5, the Activity entry by setting is: under setting [2], “Antagonistic”; under setting [1], “Antagonistic”.

B6: MS-Pro-29: anti-FGFR3 Ig-like domain 3 antibody of WO 2002/102972 A2; VH SEQ ID NO:40, VL SEQ ID NO:41 (antibody, V domains shown)
VH: QVQLVQSGAEVKKPGASVKVSCKASGYTFTSYYMHWVRQAPGQGLEWMGWINPNSGGTNYAQKFQGRVTMTRDTSISTAYMELSSLRSEDTAVYYCARTWQYSYFYYLDGGYYFDIWGQGTLVTVSS
VL: DIVLTQSPATLSLSPGERATLSCRASQSVSSSYLAWYQQKPGQAPRLLIYGASSRATGVPARFSGSGSGTDFTLTISSLEPEDFATYYCQQTNNAPVTFGQGTKVEIKRT
For the molecule B6, the Activity entry is listed as “Antagonistic” under setting [2] and “Antagonistic” under setting [1].

B7: FGA0007: anti-FGFR3 (S249C mutant) antibody of WO 2021/010326 A1; VH SEQ ID NO:88, VL SEQ ID NO:89 (antibody, V domains shown)
VH: QSVEESGGRLVTPGTPLTLTCTVSGFSLSSYPMSWVRQAPGKGLEWIGIISSSGRTYYASWAKGRFTISKASSTTAALKMTSLTTEDTATYFCARGGVYKYDDYGDYVLNLWGRGTLVTVSS
VL: AIEMTQTPFSVSAAVGGTVTINCQASENIYSNLAWYQQKPGQPPKLLIYAASYLASGVPSRFKGSGSGTDYTLTISGVQCADAATYYCQCTLYSSTYGVAFGGGTEVVVK
Turning to B7, the Activity entry under setting [1] is given as “Antagonistic”.

B8: MS-Pro-28: anti-FGFR3 Ig-like domain 3 antibody of WO 2002/102972 A2; VH SEQ ID NO:38, VL SEQ ID NO:39 (antibody, V domains shown)
VH: QVQLVQSGAEVKKPGSSVKVSCKASGGTFSSYAISWVRQAPGQGLEWMGGIIPIFGTANYAQKFQGRVTITADESSTAYMELSSLRSEDTAVYYCARGGGWVSHGYYYLFDLWGQGTLVTVSS
VL: DIQMTQSPSSLSASVGDRVTITCRASQGISSYLAWYQQKPGKAPKLLIYAASSLQSGVPSRFSGSGSGTDFTLTISSLQPEDFAVYYCFQYGSIPPTFGQGTKVEIKRT
In the case of B8, the Activity entry is listed as “Antagonistic” under setting [2] and “Antagonistic” under setting [1].

B9: KE63: anti-FGFR3 IIIb and IIIc antibody of WO 2022/040560 A1; VH SEQ ID NO:80, VL SEQ ID NO:81 (antibody, V domains shown)
VH: QVQLQQSGAELVRPGASVTLSCKASGSTFSDFEIHWVKQTPVHGLEWIGGIDPETGGTAYNQKFKGKAILTADRSSSTAYMELRSLTSEDSAVYYCTRNYDGYSQTMDYWGQGTSVTVSS
VL: NIMMTQSPSSLAVSAGEKVTMSCKSSQSVLYSSNQKNYLAWYQQKPGQSPKLLIYWASTRESGVPDRFTGSGSGTDFTLTISSVQAEDLAVYYCHQYLSSYTFGGGTKLEMK
For the molecule B9, the Activity entry by setting is: under setting [2], “Antagonistic”; under setting [1], “Antagonistic”.

B10: KE94: anti-FGFR3 IIIb and IIIc antibody of WO 2022/040560 A1; VH SEQ ID NO:82, VL SEQ ID NO:83 (antibody, V domains shown)
VH: QVQLQQSGAELVRPGASVTLSCKASGSTFTDFEIHWVKQTPVHGLEWIGAIDPETGGTAYNQKFKGKAILTAVKSSSTAYMGLRSLTSEDSAVYYCTRNYDGYSRTMDYWGQGTSVTVSS
VL: NIMMTQSPSSLAVSAGEKVTMSCKSSQSVLYSSNQKNYLAWYQQKPGQSPKLLIYWASTRESGVPDRFTGSGSGTDFSLSISSVQTEDLAVYYCHQYLSSYTFGGGTRLEMK
B10: the Activity result reads like this: under setting [2], “Antagonistic”; under setting [1], “Antagonistic”.

B11: KE58: anti-FGFR3 IIIb and IIIc antibody of WO 2022/040560 A1; VH SEQ ID NO:78, VL SEQ ID NO:79 (antibody, V domains shown)
VH: EVQLQQSGPDLVKPGASVKISCKASGYTVTDYYMNWVKQSHGKSLEWIGDINPNNGVTTYNQKFKDKATLTVDKSSSTAYMELRSLTSEDSAVYYCAREEDFDGFDYWGQGTTLTVSS
VL: DIVMTQSHKFMSTSVGDRVSITCKASQDVSTGVAWYQQKPGQSPQLLIYWASTRHTGVPDRFTGSGSGTDYILTIRSVQAEDLALYYCQQHYSTPLTFGAGTKLELK
Regarding B11, the Activity result reads like this: under setting [2], “Antagonistic”; under setting [1], “Antagonistic”.
